From patent US20070118934A1

Columns and labels:
[1] = molecular target: mouse (anti-human ICAM) monoclonal antibody
[2] = molecular target: human rhinovirus serotype HRV-39; assay: cell-based or functional assay
[3] = molecular target: human rhinovirus serotype HRV-39

Row | Substance | IC50 (read off the curve) [1] | IC50, cytopathic effect (CPE) assay, HRV-39 on HeLa S3 cells [2] | IC50 (read off the curve) [3] | fold lower IC50 than soluble ICAM-1, CPE assay [2]
1 | soluble human ICAM-1 (from UniProt P05362 28-480) (receptor) | 0.8 µg/mL | 1.35 µg/mL | 40 nM | 
2 | IC1-5D/IgA (ICAM/IgA fusion, gift of Dr. Tim Springer; Martin et al. 1993) (from UniProt P05362 28-480; P01876 103-353) (Fc fusion) |  | 0.12 µg/mL |  | 11.3 fold
3 | ICAM-IgA (Fc fusion) |  |  | 3 nM | 
